Biological target: T1, Sialylated clusterin (CLU) (UniProt P10909 23-449, sialylated)
T1 construct: Clusterin (CLU), soluble sialylated protein
Experiment: BLI + MST; quantitative binding assay; which of the two methods gave the value, and who was immobilised or labelled, is not told
Settings: both partners purified

T1 sequence (P10909 23-449): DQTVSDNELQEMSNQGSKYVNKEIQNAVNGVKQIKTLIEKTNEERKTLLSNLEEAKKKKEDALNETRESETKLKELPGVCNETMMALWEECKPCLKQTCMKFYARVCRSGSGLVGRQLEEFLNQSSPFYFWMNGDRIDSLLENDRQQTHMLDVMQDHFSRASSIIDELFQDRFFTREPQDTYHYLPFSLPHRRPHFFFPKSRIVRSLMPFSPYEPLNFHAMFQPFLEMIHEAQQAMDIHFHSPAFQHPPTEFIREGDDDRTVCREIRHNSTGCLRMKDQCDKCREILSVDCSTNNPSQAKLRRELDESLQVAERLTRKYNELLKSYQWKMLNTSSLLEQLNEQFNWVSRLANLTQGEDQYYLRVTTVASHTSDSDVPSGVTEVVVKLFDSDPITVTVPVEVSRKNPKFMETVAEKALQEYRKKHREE

B1: sialic-acid binding immunoglobulin-like lectin 3 receptor (Siglec-3 / CD33) (receptor)
chain: DPNFWLQVQESVTVQEGLCVLVPCTFFHPIPYYDKNSPVHGYWFREGAIISRDSPVATNKLDQEVQEETQGRFRLLGDPSRNNCSLSIVDARRRDNGSYFFRMERGSTKYSYKSPQLSVHVTDLTHRPKILIPGTLEPGHSKNLTCSVSWACEQGTPPIFSWLSAAPTSLGPRTTHSSVLIITPRPQDHGTNLTCQVKFAGAGVTTERTIQLNVTYVPQNPTTGIFPGDGSGKQETRAGVVH
With B1 as the binder, how does the Kd read?
Its Kd is 28.9 ± 10.3 nM.

Source: article PMC12726990, “Sialylated Clusterin Binds CD33 to Regulate Microglial Functions in Alzheimer's Disease” (Alzheimer's & Dementia, 2025)
